Data from article PMC11582626 (Nature Communications, 2024).
Where a chain is given by its changes, count along the chain named.

Experiments:
[1] = biological target: h5B11-YTE, h5B11 with the YTE mutation (M252Y/S254T/T256E) in the Fc region (human); test: SPR
[2] = biological target: RSV B18537 prefusion-stabilized F glycoprotein variant sc9-10 DS-Cav1 (respiratory syncytial virus strain B18537); test: cryo-EM structure
[3] = biological target: RSV A2 prefusion-stabilized F glycoprotein variant DS-Cav1 (respiratory syncytial virus strain A2); test: cryo-EM structure
[4] = biological target: T1, RSV B18537 prefusion-stabilized F glycoprotein variant DS-Cav1 (Human respiratory syncytial virus B, …, stabilised); test: SPR
T1 chain 1: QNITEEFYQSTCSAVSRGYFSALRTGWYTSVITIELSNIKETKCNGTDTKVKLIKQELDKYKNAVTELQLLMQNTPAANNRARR
T1 chain 2: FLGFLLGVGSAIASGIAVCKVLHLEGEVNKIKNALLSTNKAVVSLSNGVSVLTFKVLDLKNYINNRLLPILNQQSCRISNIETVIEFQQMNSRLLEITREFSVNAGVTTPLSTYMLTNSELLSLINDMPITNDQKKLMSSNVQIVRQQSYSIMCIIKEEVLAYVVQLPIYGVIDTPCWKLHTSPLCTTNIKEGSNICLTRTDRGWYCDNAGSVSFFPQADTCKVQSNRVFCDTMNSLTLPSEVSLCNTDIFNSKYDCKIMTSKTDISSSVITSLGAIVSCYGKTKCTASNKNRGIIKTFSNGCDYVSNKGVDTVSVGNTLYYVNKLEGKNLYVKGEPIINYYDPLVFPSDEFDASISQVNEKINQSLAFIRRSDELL

[5] = biological target: RSV B18537 post-fusion F protein (Human respiratory syncytial virus B, …, UniProt P13843); test: ELISA
RSV B18537 post-fusion F protein, sequence (P13843 whole entry, looked up, the tested form may be a part, one chain of several): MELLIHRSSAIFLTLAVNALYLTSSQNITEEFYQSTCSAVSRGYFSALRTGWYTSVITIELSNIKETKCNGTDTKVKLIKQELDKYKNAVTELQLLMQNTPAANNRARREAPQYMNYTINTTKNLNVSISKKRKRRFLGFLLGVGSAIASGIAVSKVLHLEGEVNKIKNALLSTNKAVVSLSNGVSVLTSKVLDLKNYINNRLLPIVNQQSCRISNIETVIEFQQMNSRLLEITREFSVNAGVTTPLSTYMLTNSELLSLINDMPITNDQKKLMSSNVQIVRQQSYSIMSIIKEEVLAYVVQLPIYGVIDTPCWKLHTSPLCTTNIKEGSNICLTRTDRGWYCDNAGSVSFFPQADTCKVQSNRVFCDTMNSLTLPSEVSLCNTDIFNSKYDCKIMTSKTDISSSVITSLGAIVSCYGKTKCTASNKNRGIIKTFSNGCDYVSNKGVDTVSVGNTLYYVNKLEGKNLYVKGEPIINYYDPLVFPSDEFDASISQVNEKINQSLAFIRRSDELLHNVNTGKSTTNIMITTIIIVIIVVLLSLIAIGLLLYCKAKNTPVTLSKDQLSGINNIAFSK

[6] = biological target: RSV A2 post-fusion F protein (Human respiratory syncytial virus A, …, UniProt P03420); test: ELISA
RSV A2 post-fusion F protein, sequence (P03420 whole entry, looked up, the tested form may be a part): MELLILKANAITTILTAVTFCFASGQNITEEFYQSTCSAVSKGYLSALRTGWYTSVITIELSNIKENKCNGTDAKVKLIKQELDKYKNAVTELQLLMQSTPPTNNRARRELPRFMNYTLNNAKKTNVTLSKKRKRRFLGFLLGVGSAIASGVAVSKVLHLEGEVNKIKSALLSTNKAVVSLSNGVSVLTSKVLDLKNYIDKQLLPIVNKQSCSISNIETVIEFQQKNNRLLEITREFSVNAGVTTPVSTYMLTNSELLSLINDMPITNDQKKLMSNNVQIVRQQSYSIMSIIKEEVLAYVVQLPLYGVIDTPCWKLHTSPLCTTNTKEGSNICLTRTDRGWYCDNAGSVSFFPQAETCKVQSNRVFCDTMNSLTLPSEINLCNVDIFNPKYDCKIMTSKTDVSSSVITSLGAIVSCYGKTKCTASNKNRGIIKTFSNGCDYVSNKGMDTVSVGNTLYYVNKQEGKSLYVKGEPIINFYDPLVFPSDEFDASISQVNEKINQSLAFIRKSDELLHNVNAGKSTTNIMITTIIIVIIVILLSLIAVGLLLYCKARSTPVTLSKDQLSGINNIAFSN

[7] = biological target: RSV B18537 prefusion-stabilized F glycoprotein variant DS-Cav1 (respiratory syncytial virus strain B18537)
[8] = biological target: RSV B18537 prefusion-stabilized F glycoprotein variant DS-Cav1 (respiratory syncytial virus strain B18537); test: SPR

**Q.** With “human neonatal FcR (hFcRn) (from UniProt P55899;P61769) (receptor)” as the molecule, how does the fold increase in affinity over h5B11-WT [1] read?
**A.** 8 fold

**Q.** “RSV B18537 prefusion-stabilized F glycoprotein variant sc9-10 DS-Cav1 (natural protein)” was tested. Which stoichiometry N [2] did it give?
**A.** 3

**Q.** For “RSV A2 prefusion-stabilized F glycoprotein variant DS-Cav1 (natural protein)”, which stoichiometry N [3] is on record?
**A.** 3

B1: 5B11 Fab (antigen-binding fragment of murine 5B11) (Fab, V domains shown)
VH: QIQLVQSGPELKKPGETVKISCKASGYTFTDYSMHWLKQAPGKGLKWMGWITTETGEPTYADDFKGRFAFSLETSASTAYLQINNLKNEDTGIYFCARYYYGPFYWGQGTLVTVST
VL: DIQMTQSPASLSASVGETVTITCRSSGNIHNFLTWYQQKQGKSPQFLVYNAKTLADGVSSRFSGSGSGTQFSLKINSLQPEDFGIYYCQHFWTTPYTFGGGTKLEIK
**Q.** How did the Kd [4] turn out when B1 was run?
**A.** 0.124 nM

B2: h5B11, humanized version of 5B11 (human IgG1, kappa) (antibody, V domains shown)
VH: B1 VH with E16A, T17S, E73D, N84S, N85S, N88A, I93V, T116S
VL: B1 VL with A9S, E17D, T18R, Q40P, S59P, S72T, K74T, N76S, L104V
**Q.** Which results are given for B2?
**A.** binding result [5]: no binding; binding result [6]: no binding

B3: 5B11, murine monoclonal antibody (mouse IgG2a, kappa) (antibody, V domains shown)
VH: B1 VH
VL: B1 VL
**Q.** Does B3 bind [5]?
**A.** no binding

**Q.** Does B3 bind [6]?
**A.** no binding

B4: nirsevimab (biosimilar, human IgG1, kappa) (antibody, V domains shown)
VH: QVQLVQSGAEVKKPGSSVMVSCQASGGLLEDYIINWVRQAPGQGPEWMGGIIPVLGTVHYGPKFQGRVTITADESTDTAYMELSSLRSEDTAMYYCATETALVVSETYLPHYFDNWGQGTLVTVSS
VL: DIQMTQSPSSLSAAVGDRVTITCQASQDIVNYLNWYQQKPGKAPKLLIYVASNLETGVPSRFSGSGSGTDFSLTISSLQPEDVATYYCQQYDNLPLTFGGGTKVEIK
**Q.** B4 was tested. Which plaque reduction neutralization of RSV B18537, IC50 [7] did it give?
**A.** 0.0285 µg/mL

B5: nirsevimab Fab (Fab, V domains shown)
VH: B4 VH
VL: B4 VL
**Q.** How did the Kd [8] turn out when B5 was run?
**A.** > 800 nM
